# Experimental data published in article PMC9482650, “Quantitative fragmentomics allow affinity mapping of interactomes” (Nature Communications, 2022).
# B1: SLC16A3, O15427 (peptide)
# chain: EVVHTPETSV
# B2: TRIM50, Q86XT4 (peptide)
# chain: PLSPEQPTKL
# B3: PDZRN4, Q6ZMN7 (peptide)
# chain: HNAFLSVTTV
# Assays:
# Assay in all cases: holdup assay
# Parameters in all cases: key: below the threshold = too weak to quantify, mostly under pKd 3.1 to 4
# APBA2_1, Q99767 = target: T1, APBA2_1, Q99767
# T1 sequence (Q99767 563-664, limits assumed, looked up): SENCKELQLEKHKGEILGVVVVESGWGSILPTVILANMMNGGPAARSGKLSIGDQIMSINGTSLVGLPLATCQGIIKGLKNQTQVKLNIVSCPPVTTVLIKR
# DFNB31_3, Q9P202 = target: T2, DFNB31_3, Q9P202
# T2 sequence (Q9P202 811-907, limits assumed, looked up): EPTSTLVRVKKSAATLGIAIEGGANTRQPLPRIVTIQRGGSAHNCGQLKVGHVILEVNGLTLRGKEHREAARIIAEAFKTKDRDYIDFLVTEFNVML
# DLG1_3, Q12959 = target: DLG1_3, Q12959
# Chain of DLG1_3, Q12959 (Q12959 457-571): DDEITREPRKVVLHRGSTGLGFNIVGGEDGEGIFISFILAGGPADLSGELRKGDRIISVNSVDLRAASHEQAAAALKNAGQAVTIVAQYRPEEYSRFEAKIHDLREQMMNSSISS
# DLG2_2, Q15700 = target: DLG2_2, Q15700
# Chain of DLG2_2, Q15700 (Q15700 189-283): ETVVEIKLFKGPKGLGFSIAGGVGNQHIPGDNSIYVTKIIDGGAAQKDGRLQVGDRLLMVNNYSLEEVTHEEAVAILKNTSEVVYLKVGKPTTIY
# DLG3_3, Q92796 = target: T3, DLG3_3, Q92796
# T3 sequence (Q92796 374-475, limits assumed, looked up): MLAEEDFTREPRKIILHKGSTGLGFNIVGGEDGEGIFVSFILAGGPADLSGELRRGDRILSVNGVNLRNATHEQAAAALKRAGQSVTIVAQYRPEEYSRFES
# DLG4_1, P78352 = target: DLG4_1, P78352
# Chain of DLG4_1, P78352 (P78352 62-152): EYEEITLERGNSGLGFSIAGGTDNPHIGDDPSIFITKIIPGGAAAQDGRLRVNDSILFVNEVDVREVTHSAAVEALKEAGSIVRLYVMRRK
# DLG4_2, P78352 = target: DLG4_2, P78352
# Chain of DLG4_2, P78352 (P78352 155-259): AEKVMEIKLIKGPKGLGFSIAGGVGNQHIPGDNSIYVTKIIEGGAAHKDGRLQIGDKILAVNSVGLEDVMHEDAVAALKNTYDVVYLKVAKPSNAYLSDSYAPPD
# DLG4_3, P78352 = target: DLG4_3, P78352
# Chain of DLG4_3, P78352 (P78352 306-403): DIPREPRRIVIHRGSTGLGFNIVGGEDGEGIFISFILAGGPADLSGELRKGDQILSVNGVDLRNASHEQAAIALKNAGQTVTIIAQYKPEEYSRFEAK
# FRMPD2_1, Q68DX3 = target: FRMPD2_1, Q68DX3
# Chain of FRMPD2_1, Q68DX3 (Q68DX3 770-861): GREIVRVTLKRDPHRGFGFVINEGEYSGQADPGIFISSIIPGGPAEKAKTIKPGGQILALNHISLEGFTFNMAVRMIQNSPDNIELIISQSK
# FRMPD4, Q14CM0 = target: FRMPD4, Q14CM0
# Chain of FRMPD4, Q14CM0 (Q14CM0 67-160): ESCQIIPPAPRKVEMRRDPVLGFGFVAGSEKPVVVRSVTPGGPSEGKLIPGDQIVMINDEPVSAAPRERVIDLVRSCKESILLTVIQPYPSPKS
# GOPC, Q9HD26 = target: GOPC, Q9HD26
# GORASP2, Q9H8Y8 = target: GORASP2, Q9H8Y8
# GRIP1_7, Q9Y3R0 = target: T4, GRIP1_7, Q9Y3R0
# T4 sequence (Q9Y3R0 999-1096, limits assumed, looked up): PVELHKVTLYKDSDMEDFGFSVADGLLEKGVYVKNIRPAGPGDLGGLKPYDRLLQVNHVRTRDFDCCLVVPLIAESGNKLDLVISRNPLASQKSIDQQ
# GRIP2_3, Q9C0E4 = target: GRIP2_3, Q9C0E4
# Chain of GRIP2_3, Q9C0E4 (Q9C0E4 238-339): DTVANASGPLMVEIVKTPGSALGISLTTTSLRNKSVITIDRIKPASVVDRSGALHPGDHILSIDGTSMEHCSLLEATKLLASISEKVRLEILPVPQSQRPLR
# HTRA4, P83105 = target: T5, HTRA4, P83105
# T5 sequence (P83105 378-476, limits assumed, looked up): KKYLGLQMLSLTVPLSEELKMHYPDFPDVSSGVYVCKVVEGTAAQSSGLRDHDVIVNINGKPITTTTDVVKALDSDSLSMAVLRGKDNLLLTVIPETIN
# Inadl_2, Q8NI35 = target: Inadl_2, Q8NI35
# Chain of Inadl_2, Q8NI35 (Q8NI35 238-335): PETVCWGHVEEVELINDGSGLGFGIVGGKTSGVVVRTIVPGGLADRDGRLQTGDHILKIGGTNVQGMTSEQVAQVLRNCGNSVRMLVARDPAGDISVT
# Inadl_8, Q8NI35 = target: Inadl_8, Q8NI35
# Chain of Inadl_8, Q8NI35 (Q8NI35 1425-1530): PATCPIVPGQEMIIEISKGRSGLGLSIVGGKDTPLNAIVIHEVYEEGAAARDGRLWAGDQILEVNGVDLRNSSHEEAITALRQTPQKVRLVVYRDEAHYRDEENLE
# LIMK2, P53671 = target: LIMK2, P53671
# Chain of LIMK2, P53671 (P53671 143-248): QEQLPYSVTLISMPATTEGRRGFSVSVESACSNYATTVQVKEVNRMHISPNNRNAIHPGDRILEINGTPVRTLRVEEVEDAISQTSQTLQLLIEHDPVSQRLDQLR
# LNX1_1, Q8TBB1 = target: LNX1_1, Q8TBB1
# Chain of LNX1_1, Q8TBB1 (Q8TBB1 261-371): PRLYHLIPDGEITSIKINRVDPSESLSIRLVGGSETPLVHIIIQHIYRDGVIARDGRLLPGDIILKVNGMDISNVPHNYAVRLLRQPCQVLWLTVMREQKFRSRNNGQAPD
# LNX1_3, Q8TBB1 = target: LNX1_3, Q8TBB1
# Chain of LNX1_3, Q8TBB1 (Q8TBB1 500-596): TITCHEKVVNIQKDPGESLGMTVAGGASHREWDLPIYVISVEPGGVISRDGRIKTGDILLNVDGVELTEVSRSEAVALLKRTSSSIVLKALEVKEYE
# MAGI2_3, Q86UL8 = target: MAGI2_3, Q86UL8
# Chain of MAGI2_3, Q86UL8 (Q86UL8 600-682): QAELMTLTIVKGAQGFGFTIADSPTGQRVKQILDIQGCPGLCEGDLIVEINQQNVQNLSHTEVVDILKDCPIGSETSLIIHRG
# MAGI2_5, Q86UL8 = target: MAGI2_5, Q86UL8
# Chain of MAGI2_5, Q86UL8 (Q86UL8 915-1017): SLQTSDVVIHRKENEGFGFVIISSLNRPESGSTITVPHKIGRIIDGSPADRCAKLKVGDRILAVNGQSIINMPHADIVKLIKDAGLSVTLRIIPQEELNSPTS
# MAST2, Q6P0Q8 = target: MAST2, Q6P0Q8
# Chain of MAST2, Q6P0Q8 (Q6P0Q8 1099-1202): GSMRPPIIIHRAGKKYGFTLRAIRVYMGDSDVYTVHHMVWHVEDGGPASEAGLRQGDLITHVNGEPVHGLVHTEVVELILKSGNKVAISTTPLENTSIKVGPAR
# NHERF3_1, Q5T2W1 = target: T6, NHERF3_1, Q5T2W1
# T6 sequence (Q5T2W1 4-100, limits assumed, looked up): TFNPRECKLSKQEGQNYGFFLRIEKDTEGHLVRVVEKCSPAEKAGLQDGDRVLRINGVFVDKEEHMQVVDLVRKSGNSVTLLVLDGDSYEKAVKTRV
# NHERF4_1, Q86UT5-2 = target: NHERF4_1, Q86UT5-2
# Chain of NHERF4_1, Q86UT5-2 (Q86UT5 other isoform, or with tags, fused parts or gaps): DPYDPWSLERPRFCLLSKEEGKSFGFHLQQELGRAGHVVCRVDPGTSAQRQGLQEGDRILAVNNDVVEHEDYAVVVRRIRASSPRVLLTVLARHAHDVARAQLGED
# NHERF4_4, Q86UT5 = target: NHERF4_4, Q86UT5
# Chain of NHERF4_4, Q86UT5 (Q86UT5 464-550): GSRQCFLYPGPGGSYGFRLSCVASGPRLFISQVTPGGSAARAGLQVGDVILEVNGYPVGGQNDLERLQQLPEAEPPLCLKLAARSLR
# PDZD2_2, O15018 = target: T7, PDZD2_2, O15018
# T7 sequence (O15018 329-429, limits assumed, looked up): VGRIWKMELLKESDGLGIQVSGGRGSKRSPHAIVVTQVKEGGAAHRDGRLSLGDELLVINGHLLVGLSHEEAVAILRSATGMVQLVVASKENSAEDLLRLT
# SCRIB_1, Q14160 = target: SCRIB_1, Q14160
# Chain of SCRIB_1, Q14160 (Q14160 718-814): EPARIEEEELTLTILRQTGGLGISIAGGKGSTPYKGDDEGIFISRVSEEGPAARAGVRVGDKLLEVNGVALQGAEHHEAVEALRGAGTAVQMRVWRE
# SCRIB_2, Q14160 = target: SCRIB_2, Q14160
# Chain of SCRIB_2, Q14160 (Q14160 857-960): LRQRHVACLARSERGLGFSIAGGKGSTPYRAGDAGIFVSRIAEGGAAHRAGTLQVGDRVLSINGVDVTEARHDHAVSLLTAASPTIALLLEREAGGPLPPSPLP
# SNX27, Q96L92 = target: SNX27, Q96L92
# TJP3_3, O95049 = target: T8, TJP3_3, O95049
# T8 sequence (O95049 375-456, limits assumed, looked up): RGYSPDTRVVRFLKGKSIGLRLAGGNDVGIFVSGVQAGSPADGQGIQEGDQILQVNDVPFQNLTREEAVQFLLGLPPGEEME
# [1] = plain residues with an end cap or a label only (N-terminal biotin on a linker: ttds)
# [2] = plain residues with an end cap or a label only (N-terminal biotin on a linker: ado-ado)
# [3] = plain residues with an end cap or a label only (N-terminal biotin on a linker: ahx)
binder,measurement,setting,value
B1,pKd,"APBA2_1, Q99767; [1]",below the threshold
same,pKd,"DFNB31_3, Q9P202; [1]",below the threshold
same,pKd,"DLG1_3, Q12959; [1]",4.1
same,pKd,"DLG2_2, Q15700; [1]",3.98
same,pKd,"DLG3_3, Q92796; [1]",4.28
same,pKd,"DLG4_1, P78352; [1]",3.9
same,pKd,"DLG4_2, P78352; [1]",4.2
same,pKd,"DLG4_3, P78352; [1]",3.94
same,pKd,"FRMPD2_1, Q68DX3; [1]",below the threshold
same,pKd,"FRMPD4, Q14CM0; [1]",below the threshold
same,pKd,"GOPC, Q9HD26; [1]",below the threshold
same,pKd,"GORASP2, Q9H8Y8; [1]",below the threshold
same,pKd,"GRIP1_7, Q9Y3R0; [1]",3.79
same,pKd,"GRIP2_3, Q9C0E4; [1]",below the threshold
same,pKd,"HTRA4, P83105; [1]",below the threshold
same,pKd,"Inadl_2, Q8NI35; [1]",below the threshold
same,pKd,"Inadl_8, Q8NI35; [1]",below the threshold
same,pKd,"LIMK2, P53671; [1]",below the threshold
same,pKd,"LNX1_1, Q8TBB1; [1]",below the threshold
same,pKd,"LNX1_3, Q8TBB1; [1]",below the threshold
same,pKd,"MAGI2_3, Q86UL8; [1]",below the threshold
same,pKd,"MAGI2_5, Q86UL8; [1]",below the threshold
same,pKd,"MAST2, Q6P0Q8; [1]",5.16
same,pKd,"NHERF3_1, Q5T2W1; [1]",below the threshold
same,pKd,"NHERF4_1, Q86UT5-2; [1]",4.19
same,pKd,"NHERF4_4, Q86UT5; [1]",below the threshold
same,pKd,"PDZD2_2, O15018; [1]",4.26
same,pKd,"SCRIB_1, Q14160; [1]",5.08
same,pKd,"SCRIB_2, Q14160; [1]",4.48
same,pKd,"SNX27, Q96L92; [1]",5.15
same,pKd,"TJP3_3, O95049; [1]",below the threshold
B2,pKd,"APBA2_1, Q99767; [2]",below the threshold
same,pKd,"DFNB31_3, Q9P202; [2]",3.93
same,pKd,"DLG1_3, Q12959; [2]",below the threshold
same,pKd,"DLG2_2, Q15700; [2]",below the threshold
same,pKd,"DLG3_3, Q92796; [2]",below the threshold
same,pKd,"DLG4_1, P78352; [2]",below the threshold
same,pKd,"DLG4_2, P78352; [2]",below the threshold
same,pKd,"DLG4_3, P78352; [2]",below the threshold
same,pKd,"FRMPD2_1, Q68DX3; [2]",below the threshold
same,pKd,"FRMPD4, Q14CM0; [2]",3.61
same,pKd,"GOPC, Q9HD26; [2]",below the threshold
same,pKd,"GORASP2, Q9H8Y8; [2]",below the threshold
same,pKd,"GRIP1_7, Q9Y3R0; [2]",below the threshold
same,pKd,"GRIP2_3, Q9C0E4; [2]",below the threshold
same,pKd,"HTRA4, P83105; [2]",3.75
same,pKd,"Inadl_2, Q8NI35; [2]",below the threshold
same,pKd,"Inadl_8, Q8NI35; [2]",below the threshold
same,pKd,"LIMK2, P53671; [2]",below the threshold
same,pKd,"LNX1_1, Q8TBB1; [2]",below the threshold
same,pKd,"LNX1_3, Q8TBB1; [2]",below the threshold
same,pKd,"MAGI2_3, Q86UL8; [2]",below the threshold
same,pKd,"MAGI2_5, Q86UL8; [2]",below the threshold
same,pKd,"MAST2, Q6P0Q8; [2]",4.73
same,pKd,"NHERF3_1, Q5T2W1; [2]",3.53
same,pKd,"NHERF4_1, Q86UT5-2; [2]",3.98
same,pKd,"NHERF4_4, Q86UT5; [2]",below the threshold
same,pKd,"PDZD2_2, O15018; [2]",below the threshold
same,pKd,"SCRIB_1, Q14160; [2]",below the threshold
same,pKd,"SCRIB_2, Q14160; [2]",below the threshold
same,pKd,"SNX27, Q96L92; [2]",below the threshold
same,pKd,"TJP3_3, O95049; [2]",below the threshold
B3,pKd,"APBA2_1, Q99767; [3]",3.69
same,pKd,"DFNB31_3, Q9P202; [3]",below the threshold
same,pKd,"DLG1_3, Q12959; [3]",below the threshold
same,pKd,"DLG2_2, Q15700; [3]",below the threshold
same,pKd,"DLG3_3, Q92796; [3]",below the threshold
same,pKd,"DLG4_1, P78352; [3]",below the threshold
same,pKd,"DLG4_2, P78352; [3]",3.51
same,pKd,"DLG4_3, P78352; [3]",3.56
same,pKd,"FRMPD2_1, Q68DX3; [3]",below the threshold
same,pKd,"FRMPD4, Q14CM0; [3]",3.5
same,pKd,"GOPC, Q9HD26; [3]",3.6
same,pKd,"GORASP2, Q9H8Y8; [3]",3.55
same,pKd,"GRIP1_7, Q9Y3R0; [3]",below the threshold
same,pKd,"GRIP2_3, Q9C0E4; [3]",below the threshold
same,pKd,"HTRA4, P83105; [3]",below the threshold
same,pKd,"Inadl_2, Q8NI35; [3]",below the threshold
same,pKd,"Inadl_8, Q8NI35; [3]",3.52
same,pKd,"LIMK2, P53671; [3]",below the threshold
same,pKd,"LNX1_1, Q8TBB1; [3]",below the threshold
same,pKd,"LNX1_3, Q8TBB1; [3]",below the threshold
same,pKd,"MAGI2_3, Q86UL8; [3]",3.49
same,pKd,"MAGI2_5, Q86UL8; [3]",below the threshold
same,pKd,"MAST2, Q6P0Q8; [3]",below the threshold
same,pKd,"NHERF3_1, Q5T2W1; [3]",below the threshold
same,pKd,"NHERF4_1, Q86UT5-2; [3]",3.69
same,pKd,"NHERF4_4, Q86UT5; [3]",below the threshold
same,pKd,"PDZD2_2, O15018; [3]",3.49
same,pKd,"SCRIB_1, Q14160; [3]",below the threshold
same,pKd,"SCRIB_2, Q14160; [3]",3.71
same,pKd,"SNX27, Q96L92; [3]",3.65
same,pKd,"TJP3_3, O95049; [3]",below the threshold
